Experiments:
HeLa Kyoto [1] = assay: solubility in G1/S (NP-40 vs SDS abundance) (log2 ratio); higher = more soluble; settings: cell cycle stage: G1/S
HeLa Kyoto [2] = assay: melting temperature (median over replicates), in situ; higher = more thermally stable
HeLa Kyoto [3] = assay: solubility change mitosis vs G1/S (difference of NP-40 vs SDS log2 ratios) (log2 ratio difference); higher = more soluble in mitosis
HeLa Kyoto [4] = assay: thermal stability score vs G1/S (z-score of summed log2 fold changes over temperatures); higher = more thermally stable than in G1/S
[5] = cell cycle stage: early G1 (4.5 h after nocodazole release)
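Wherever melting temperature (median over replicates), in situ is given: HeLa Kyoto cells synchronized by double thymidine or nocodazole block, proteins quantified by TMT10plex mass spectrometry, three independent biological replicates.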
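Wherever solubility change mitosis vs G1/S (difference of NP-40 vs SDS log2 ratios) is given: synchronized HeLa Kyoto cells (double thymidine block for G1/S, nocodazole release for mitosis), protein amounts in NP-40 versus SDS lysates quantified by mass spectrometry, three biological replicates.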
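Wherever solubility in G1/S (NP-40 vs SDS abundance) is given: HeLa Kyoto cells arrested at G1/S by double thymidine block, proteins quantified by TMT10plex mass spectrometry in mild NP-40 versus SDS extracts, three biological replicates.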
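Wherever thermal stability score vs G1/S (z-score of summed log2 fold changes over temperatures) is given: synchronized HeLa Kyoto cells, proteins quantified by TMT10plex mass spectrometry, three biological replicates, mitosis taken 0.5 h after nocodazole release, G1/S directly after double thymidine block.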

Sequence of CHAC2 (chain, as listed by the source): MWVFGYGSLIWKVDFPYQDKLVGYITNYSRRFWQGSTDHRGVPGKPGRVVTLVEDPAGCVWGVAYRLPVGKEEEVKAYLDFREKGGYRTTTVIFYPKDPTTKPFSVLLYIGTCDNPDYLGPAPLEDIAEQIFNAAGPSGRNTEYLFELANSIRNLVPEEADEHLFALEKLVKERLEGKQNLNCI

| Substance | solubility in G1/S (log2) (HeLa Kyoto [1]) | melting temperature (HeLa Kyoto [2]; cell cycle stage: G1/S) [°C] | melting temperature (HeLa Kyoto [2]; cell cycle stage: mitosis) [°C] | solubility change mitosis (log2) (HeLa Kyoto [3]) | thermal stability score (HeLa Kyoto [4]; [5]) | thermal stability score (HeLa Kyoto [4]; cell cycle stage: mitosis) |
| --- | --- | --- | --- | --- | --- | --- |
| MEGPAEWGPEAALGPEAVLRFLAERGGRALHAELVQHFRGALGGEPEQRARARAHFKELVNAVATVRVDPADGAKYVHLKKRFCEGPSEPSGDPPRIQVTAEPEAPDGPAGPEARDRLPDAAAPESLPGQGRELGEGEPPAPAHWPPLSAGARRKNSRRDVQPLPRTPAPGPSEDLELPPHGCEEADRGSSLVGATAQRPARQNLRDLVMGSSPQLKRSVCPGGSSPGSSSGGGRGRGGGDSDSASVASSSAEEESSGGGSVTLDPLEHAWMLSASDGKWDSLEGLLTCEPGLLVKRDFITGFTCLHWAAKHGRQELLAMLVNFANKHQLPVNIDARTSGGYTALHLAAMHGHVEVVKLLVGAYDADVDIRDYSGKKASQYLSRSIAEEIKNLVGALDEGDGESAAGSGGGRWRLSKVLPSHLITYKLSHALEDGGDHHHHHHSAEGWVGGKAKDPGRKASGSSSGRIKPRLNKIRFRTQIVHTTPSFRDPEQPLEGRGEEGVGEERPVKGHSPFTLRPKSNVFG [SOWAHC] | 0.325 | 51.2 | 49.7 | 0.021 | 0.128 | -0.236 |
| CHAC2 | 0.541 | 53 | 51.9 | -0.0779 | 0.759 | 0.354 |
| MEVVPAEVNSLLPEEIMDTGITLVDDDSIEAVIVSSPIPMETELEEIVNINSTGDSTATPISTEPITVYSNHTNQVAVNTTITKADSNTTVKPAFPSGLQKLGAQTPVTISANQIILNKVSQTSDLKLGNQTLKPDGQKLILTTLGKSGSPIVLALPHSQLPQAQKVTTQAQSGDAKLPPQQIKVVTIGGRPEVKPVIGVSALTPGSQLINTTTQPSVLQTQQLKTVQIAKKPRTPTSGPVITKLIFAKPINSKAVTGQTTQVSPPVIAGRVLSQSTPGTPSKTITISESGVIGSTLNSTTQTPNKIAISPLKSPNKAVKSTVQTITVGGVSTSQFKTIIPLATAPNVQQIQVPGSKFHYVRLVTATSASSSTQPVSQNPSTNTQPLQQAKPVVVNTTPVRMSVPIVSAQAVKQVVPKPINPTSQIVTTSQPQQRLIMPATPLPQIQPNLTNLPPGTVLAPAPGTGNVGYAVLPAQYVTQLQQSSYVSIASNSTFTGTSGIQTQARLPFNGIIPSESASRPRKPCNCTKSLCLKLYCDCFANGEFCNNCNCTNCYNNLEHENERQKAIKACLDRNPEAFKPKIGKGKEGESDRRHSKGCNCKRSGCLKNYCECYEAKIMCSSICKCIGCKNFEESPERKTLMHLADAAEVRVQQQTAAKTKLSSQISDLLTRPTPALNSGGGKLPFTFVTKEVAEATCNCLLAQAEQADKKGKSKAAAERMILEEFGRCLMSVINSAGKAKSDPCAMNC [LIN54] | 0.15 | 46.4 | 50.1 | -0.11 | 0.22 | 0.778 |
| MFGPAKGRHFGVHPAPGFPGGVSQQAAGTKAGPAGAWPVGSRTDTMWRLRCKAKDGTHVLQGLSSRTRVRELQGQIAAITGIAPGGQRILVGYPPECLDLSNGDTILEDLPIQSGDMLIIEEDQTRPRSSPAFTKRGASSYVRETLPVLTRTVVPADNSCLFTSVYYVVEGGVLNPACAPEMRRLIAQIVASDPDFYSEAILGKTNQEYCDWIKRDDTWGGAIEISILSKFYQCEICVVDTQTVRIDRFGEDAGYTKRVLLIYDGIHYDPLQRNFPDPDTPPLTIFSSNDDIVLVQALELADEARRRRQFTDVNRFTLRCMVCQKGLTGQAEAREHAKETGHTNFGEV [YOD1] | 0.0787 | 50.2 | 50.2 | 0.0334 | 0.646 | 1.06 |
| MDPRKVNELRAFVKMCKQDPSVLHTEEMRFLREWVESMGGKVPPATQKAKSEENTKEEKPDSKKVEEDLKADEPSSEESDLEIDKEGVIEPDTDAPQEMGDENAEITEEMMDQANDKKVAAIEALNDGELQKAIDLFTDAIKLNPRLAILYAKRASVFVKLQKPNAAIRDCDRAIEINPDSAQPYKWRGKAHRLLGHWEEAAHDLALACKLDYDEDASAMLKEVQPRAQKIAEHRRKYERKREEREIKERIERVKKAREEHERAQREEEARRQSGAQYGSFPGGFPGGMPGNFPGGMPGMGGGMPGMAGMPGLNEILSDPEVLAAMQDPEVMVAFQDVAQNPANMSKYQSNPKVMNLISKLSAKFGGQA [ST13] | 0.813 | 51.8 | 51.3 | 0.103 | 2.23 | 1.79 |
| MAGVACLGKAADADEWCDSGLGSLGPDAAAPGGPGLGAELGPGLSWAPLVFGYVTEDGDTALHLAVIHQHEPFLDFLLGFSAGTEYMDLQNDLGQTALHLAAILGETSTVEKLYAAGAGLCVAERRGHTALHLACRVGAHACARALLQPRPRRPREAPDTYLAQGPDRTPDTNHTPVALYPDSDLEKEEEESEEDWKLQLEAENYEGHTPLHVAVIHKDVEMVRLLRDAGADLDKPEPTCGRSPLHLAVEAQAADVLELLLRAGANPAARMYGGRTPLGSAMLRPNPILARLLRAHGAPEPEGEDEKSGPCSSSSDSDSGDEGDEYDDIVVHSSRSQTRLPPTPASKPLPDDPRPV [NFKBIB] | 0.533 | 49.3 | 50 | -0.224 | 0.217 | 0.0879 |
| MAIQFRSLFPLALPGMLALLGWWWFFSRKKGHVSSHDEQQVEAGAVQLRADPAIKEPLPVEDVCPKVVSTPPSVTEPPEKELSTVSKLPAEPPALLQTHPPCRRSESSGILPNTTDMRLRPGTRRDDSTKLELALTGGEAKSIPLECPLSSPKGVLFSSKSAEVCKQDSPFSRVPRKVQPGYPVVPAEKRSSGERARETGGAEGTGDAVLGEKVLEEALLSREHVLELENSKGPSLASLEGEEDKGKSSSSQVVGPVQEEEYVAEKLPSRFIESAHTELAKDDAAPAPPVADAKAQDRGVEGELGNEESLDRNEEGLDRNEEGLDRNEESLDRNEEGLDRNEEIKRAAFQIISQVISEATEQVLATTVGKVAGRVCQASQLQGQKEESCVPVHQKTVLGPDTAEPATAEAAVAPPDAGLPLPGLPAEGSPPPKTYVSCLKSLLSSPTKDSKPNISAHHISLASCLALTTPSEELPDRAGILVEDATCVTCMSDSSQSVPLVASPGHCSDSFSTSGLEDSCTETSSSPRDKAITPPLPESTVPFSNGVLKGELSDLGAEDGWTMDAEADHSGGSDRNSMDSVDSCCSLKKTESFQNAQAGSNPKKVDLIIWEIEVPKHLVGRLIGKQGRYVSFLKQTSGAKIYISTLPYTQSVQICHIEGSQHHVDKALNLIGKKFKELNLTNIYAPPLPSLALPSLPMTSWLMLPDGITVEVIVVNQVNAGHLFVQQHTHPTFHALRSLDQQMYLCYSQPGIPTLPTPVEITVICAAPGADGAWWRAQVVASYEETNEVEIRYVDYGGYKRVKVDVLRQIRSDFVTLPFQGAEVLLDSVMPLSDDDQFSPEADAAMSEMTGNTALLAQVTSYSPTGLPLIQLWSVVGDEVVLINRSLVERGLAQWVDSYYTSL [AKAP1] | -0.0583 | 50.3 | 50.6 | -0.0592 | 0.769 | 1.64 |

From the supplement of paper PMC5998384
